The results in this text go back to patent publication US6365356B1, “Receptors that regulate cell signaling relating to chemokines” (Cornell Research Foundation, Inc., priority 1999, dated 2002).

Holding throughout (type): cell-based
One assay addresses T1, CXCR4 (Homo sapiens, UniProt P61073).
T1 construct: expressed in transfected cells; host or cells: COS-1 cells, transient DEAE-dextran transfection with pcDNA3.1 encoding CXCR4
Briefly: Luciferase reporter gene assay (protein kinase C-responsive promoter), COS-1 cells expressing CXCR4 but not DARC. The note with it: COS-1 cells expressing CXCR4 alone; luciferase gene controlled by protein kinase C-responsive promoter. The method, then: (§1) A second group of COS-1 cells were made to express DARC, but not CXCR4. A third group of COS-1 cells were made to express CXCR4, but not DARC. Signaling due to stromal cell derived factor 1 (SDF-1) and GRO-α was measured in a reporter gene assay using a luciferase gene controlled by a protein kinase C-responsive promoter.
(§2) Cell Culture and Transfection. COS-1 cells are maintained in Dulbecco's modified eagle's medium with 5% fetal calf serum and are seeded 1 day prior to transfection at 750,000 cells/100 mm dish. Cells are transfected with pcDNA3.1 (Invitrogen) encoding DARC (5 μg DNA/ml) or with pcDNA3.1 encoding CXCR4 (5 μg DNA/ml), or both using the DEAE-dextran method and maintained in Dulbecco's modified Eagle's medium with 10% fetal calf serum for 1 day at which time cells are harvested and seeded into 12-well plates at 100,000 cells/well or 24-well plates at 50,000 cells/well in Dulbecco's modified Eagle's medium with 5% fetal calf serum. Other cell lines, such as HEK-293 or CHO cells, can be stably transfected with DARC or CXCR4, or both.
(§3) Reporter Gene Assays. […] Agonists or agonists plus antagonists are added for four hours and the reporter activity measured. […]
(A reporter such as luciferase makes a cellular process visible.)

In a further assay the test system is DARC. As to the kind of experiment: Luciferase reporter gene assay (protein kinase C-responsive promoter), COS-1 cells expressing DARC but not CXCR4. The note with it: COS-1 cells expressing DARC alone; luciferase gene controlled by protein kinase C-responsive promoter. The method, then:
as §1, §2, §3

For a further assay, the target named is T2, DARC and CXCR4 (Homo sapiens, UniProt Q16570).
T2 construct: expressed in transfected cells; host or cells: COS-1 cells co-transfected (DEAE-dextran) with pcDNA3.1 encoding DARC and pcDNA3.1 encoding CXCR4
T2 sequence (Q16570 1-336): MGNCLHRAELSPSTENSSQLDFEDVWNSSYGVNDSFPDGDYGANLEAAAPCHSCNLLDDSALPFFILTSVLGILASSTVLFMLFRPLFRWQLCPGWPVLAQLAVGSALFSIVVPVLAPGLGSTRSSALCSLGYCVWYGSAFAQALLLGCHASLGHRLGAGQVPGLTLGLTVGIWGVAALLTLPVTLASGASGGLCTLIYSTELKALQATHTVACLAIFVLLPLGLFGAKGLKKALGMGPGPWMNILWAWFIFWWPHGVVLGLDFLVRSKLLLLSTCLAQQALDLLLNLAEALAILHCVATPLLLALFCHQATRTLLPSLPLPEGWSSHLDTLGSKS
Briefly: Luciferase reporter gene assay (protein kinase C-responsive promoter), COS-1 cells co-expressing DARC and CXCR4. The note with it: single chemokine. The method, then:
as §1, §2, §3

T1 sequence (P61073 whole entry): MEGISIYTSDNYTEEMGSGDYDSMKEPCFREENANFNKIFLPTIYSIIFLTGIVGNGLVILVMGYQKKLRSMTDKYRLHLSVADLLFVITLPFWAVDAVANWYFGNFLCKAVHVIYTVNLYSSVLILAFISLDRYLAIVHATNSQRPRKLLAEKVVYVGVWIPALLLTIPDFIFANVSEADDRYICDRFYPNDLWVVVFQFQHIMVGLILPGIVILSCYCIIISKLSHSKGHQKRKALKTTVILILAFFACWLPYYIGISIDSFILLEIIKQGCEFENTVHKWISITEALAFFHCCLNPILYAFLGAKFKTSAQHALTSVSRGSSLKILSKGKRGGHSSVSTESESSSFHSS

On to stromal cell derived factor 1 [SDF-1], for which the “Signaling in reporter gene assay via CXCR4” value with CXCR4 is “signals weakly”. Besides, the “Signaling in reporter gene assay via DARC” value in the assay with DARC is on record as “does not signal”.

Turning to growth-related protein-α [GRO-α], in the assay with CXCR4, the “Signaling in reporter gene assay via CXCR4” value is recorded as “did not signal”. The “Signaling (gene transcription) in reporter gene assay” value with DARC and CXCR4 is on record as “increase gene transcription”. In the assay on DARC, the “Signaling in reporter gene assay via DARC” value is listed as “did not signal”.
